# From publication PMC4252486
# What was measured:
# Assay in all cases: fluorescence anisotropy
# NCp9 (NCp7-SP2) = NCp9 (NCp7-SP2) (HIV-1 NL4-3, UniProt P12493 378-448)
# NCp15 WT (NCp7-SP2-p6) = NCp15 WT (NCp7-SP2-p6) (HIV-1 NL4-3, UniProt P12493 378-500)
# [1] = target: NCp7 (mature nucleocapsid) (HIV-1 NL4-3, UniProt P12493 378-432)
binder,measurement,setting,value
AGCTGCTTTTTGCCTGTACT (ssDNA) [JL936 (20-nt ssDNA)],Kd,NCp9 (NCp7-SP2),45 nM
same,Kd,NCp15 WT (NCp7-SP2-p6),151 nM
same,Kd,[1],176 nM
